Reference: the DeepSol protein solubility set

experiment: soluble on expression in E. coli; label from the status in PepcDB or PDB records

Row | Sequence | soluble on expression in E. coli
1 | KGKLPPVVHGTTPFVGHIIQFGKDPLGFMLKAKKKYGGIFTMNICGNRITVVGDVHQHSKFFTPRNEILSPREVYSFMVPVFGEGVAYAAPYPRMREQLNFLAEELTVAKFQNFAPSIQHEVRKFMKANWNKDEGEINILDDCSAMIINTACQCLFGEDLRKRLDARQFAQLLAKMESCLIPAAVFLPWILKLPLPQSYRCRDARAELQDILSEIIIAREKEEAQKDTNTSDLLAGLLGAVYRDGTRMSQHEVCGMIVAAMFAGQHTSTITTTWSLLHLMDPRNKRHLAKLHQEIDEFPAQLNYDNVMEEMPFAEQCARESIRRDPPLVMLMRKVLKPVQVGKYVVPEGDIIACSPLLSHQDEEAFPNPREWNPERNMKLVDGAFCGFGAGVHKCIGEKFGLLQVKTVLATVLRDYDFELLGPLPEPNYHTMVVGPTASQCRVKYIKKKKAAA | soluble
2 | AIAAYRGLHALSQPAYLEDFINSVSNLPQELRDKYGRMGELDALVQRLKNEADALVRELLRKPGSSDPDRGRDTTSLQQMGTKLEQLQAQCVKLNQEKLQLAETAYNTVDQHVRDLDTKLREYEAYLRREGQWPDDLQSLVVNTDHTKMASMKNAAAAAAAAHTAAAPATTARSTQKAPSKGQRKSGEPSTLHIMDDMPIDPNEPRYCYCQNVSYGQMVACESGDCPYEWFHFECVGLTEPPKGEWICPDCRARTGRVR | soluble
3 | MSLAKRIKIDNASSKFRRQSQKREQKVIRCSVLIVCEGTKTEPNYFEAFAEKQQGVIVYDIEVKGLGRGTKDVVEKAIDLKNKNNYDRVWAVFDRDEFPAKDFNEAIAMGQKNSIEVAWSNEAFELWYLYHFQNVITGVSRKDYEEKISTAVNASPKYKSKKKYRYAKKDPNNYKIMTTYGSMESALRYAEAKHLEYADSRYANQNPCTTIYQLVRQLLGRDEKLNAELIARIGENEGHHHHHH | soluble
4 | MVTTLTPVICESAPAAAASYSHAMKVNNLIFLSGQIPVTPDNKLVEGSIADKAEQVIQNIKNVLEASNSSLDRVVKVNIFLADINHFAEFNSVYAKYFNTHKPARSCVAVAALPLGVDMEMEAIAAERD | soluble
5 | MAHHHHHHSLSSSLANRNIYTVSRLNSEVRLLLENEMGIVWLVGEISNFSAPVSGHWYLTLKDSQAQVKCAMFKGNNRLVNFKPQNGQQVLVKARLSLYEPRGDYQIILESMQPEGDGRLQQQFEQLKMQLAAEGLFAQTRKKPLPENPRCVGIITSRTGAALHDILHVLKRRDPNLPVVIYPTLVQGEEAAIQIAQAIGRANTRAECDVLIVGRGGGSLEDLWCFNHEIVARTIAASEIPIISAVGHEIDVTIADFVADVRAPTPSAAAELVSRDHRHKQQALHQWQAKLASTMRHYLAQQETQFARLQHKLDKQHPQARLERQQQQLDELSLRLEQKMQQRLATQQQRWDRLSHKIELHSPIHLIRQQRFNLIQQEQRINQSIQRYLIQSRHQLALLSEKLDAVSPLATLARGYSVTRTTQGELVRQSAQVKPGDTLVTQLMDGEILSTVNSREG | not soluble
6 | MEQYYGTGRRKEAVARVFLRPGNGKVTVNGQDFNEYFQGLVRAVAALEPLRAVDALGHFDAYITVRGGGKSGQIDAIKLGIARALVQYNPDYRAKLKPLGFLTRDARVVERKKYGKHKARRAPQYSKR | soluble
7 | MDQDYERRLLRQIVIQNENTMPRVTEMRRTLTPASSPVSSPSKHGDRFIPSRAGANWSVNFHRINENEKSPSQNRKAKDATSDNGKDGLAYSALLKNELLGAGIEKVQDPQTEDRRLQPSTPEKKGLFTYSLSTKRSSPDDGNDVSPYSLSPVSNKSQKLLRSPRKPTRKISKIPFKVLDAPELQDDFYLNLVDWSSLNVLSVGLGTCVYLWSACTSQVTRLCDLSVEGDSVTSVGWSERGNLVAVGTHKGFVQIWDAAAGKKLSMLEGHTARVGALAWNAEQLSSGSRDRMILQRDIRTPPLQSERRLQGHRQEVCGLKWSTDHQLLASGGNDNKLLVWNHSSLSPVQQYTEHLAAVKAIAWSPHQHGLLASGGGTADRCIRFWNTLTGQPLQCIDTGSQVCNLAWSKHANELVSTHGYSQNQILVWKYPSLTQVAKLTGHSYRVLYLAMSPDGEAIVTGAGDETLRFWNVFSKTRSTKESVSVLNLFTRIR | soluble
8 | SDVLASYSIFQELQLVHDTGYFSALPSLEETWQQTCLELERYLQTEPRRISETFGEDLDCFLHASPPPCIEESFRRLDPLLLPVEAAICEKSSAVDILLSRDKLLSETCLSLQPASSSLDSYTAVNQAQLNAVTSLTPPSSPELSRHLVKTSQTLSAVDGTVTLKLVAKKAALSSVKVRSLISAHGRDVSGVLHEAMSSRGTTGNTQVQSPSNATTATGVFPGLTILPST | soluble
9 | MAHHHHHHMPFVVTHPPDTAELVEGEPFYSLAMYTLLSSTTDVVPALRNFTFQLRAFNVLPPYDAVGLLSGIDSTGLIVWGGALGFLEWLVQHPDRLQARMRNVSKAQAHVIELGCGSGVVAVALCALLRGLDLPDLVEKSISSSPAVCVWATDGNPECVSLAERNLRAQLKEPCTSCPGVAASAALLRWGDAAAVQEALQTSFPGCTAASSITVVAADVLYDAAVVPLLVSTVAEIARVHVAGAGPSTLPGSVEWWLAYTPRSLTRALNEAIFQALLDSIADHGWTYELVDLPAGAVATGFEENPDCSVPALSGCILVVQVTCDTRS | not soluble
10 | MGSDKIHHHHHHMIVKAKFVKGFIRDVHPYGCRREVLNQIDYCKKAIGFRGPKKVLIVGASSGFGLATRISVAFGGPEAHTIGVSYETGATDRRIGTAGWYNNIFFKEFAKKKGLVAKNFIEDAFSNETKDKVIKYIKDEFGKIDLFVYSLAAPRRKDYKTGNVYTSRIKTILGDFEGPTIDVERDEITLKKVSSASIEEIEETRKVMGGEDWQEWCEELLYEDCFSDKATTIAYSYIGSPRTYKIYREGTIGIAKKDLEDKAKLINEKLNRVIGGRAFVSVNKALVTKASAYIPTFPLYAAILYKVMKEKNIHENCIMQIERMFSEKIYSNEKIQFDDKGRLRMDDLELRKDVQDEVDRIWSNITPENFKELSDYKGYKKEFMNLNGFDLDGVDYSKDLDIELLRKLEP | not soluble
11 | MDDPFASLEPLAVAPSGPEGVRAQFDQMEDIPPPRPRQPPPAQEDPVEIEVTEDGVARAFTEKYGGTLRFDHDAGRWYHWQEDHWQADTTSRAFEYCRRLARLASEGAKHSLLSTARKASFAGGVERLARADPAHAVTQEAWDRDPWLVACPGETVDLRTGRSAVPRPEDGITRRVAVAPAAQETCPTWWQFLEDATGADSSVMRFLQQWAGYSLTGITREHTLVFLYGDGGNGKSVFINTLTGLLGDYAATAGMETFTASKSDRHPTDLAMLAGARLVAASETEEGRAWAESRIKQMTGGDRITARFMRRDFFTYTPQFKLTLVGNHRPALANVKPVEPWALVVPAELETVAQQVLAEIAAAAVSDVNPFSGTLELIVEPGLTSATGWYLIGNPALHDGLAHAFLDGQSAPRIETRAGWNTLGMEFRLTWAVDAKFIGTASWFRNPGASGCPRCRPRNAQRQGVALLCLARRSEVLDRLEHHHHHH | not soluble
12 | MYSDKVFDHFQNPRNVGKIEDADGVGTVGNPVCGDLMTIYIKVKDNRIEDIKFQTFGCAAAIATSSMATEMAKGKTIEEALKITRDAVAEALGGLPKQKMHCSNLAADALRRAIVDYFRKNGKIDKIKELGLEKELEKMEKGEMDDHGEYCEA | not soluble
13 | MGSDKIHHHHHHMAWIKTVAFGDATGKLRKLYDRVTGPGGNVDNIMMAHSLRPHTMEGHMALYKNVLHHSGNELPKWVLEMIGVWVSSLNGCAYCVEHHFAGLKRLMRDDARAEAIRAAIEARDIKALPVRACEMAAMDYARKLTQAPTEMMAADLEPLRAEGLSDGHILEINQVVAYFAYANRTVLGLGCSTEGDVLGLSPGNSDDPTDWGHA | not soluble
14 | MRFTISAAKPEDCKDIERMIMELAVYENMPDQVKISHKELERDGFGPNPFYHCLVAEVPEEHKSKDGNTTVGYVIFFYTYSTWKGRTVYMEDLYVMPEFRGNGIGKALLGAVAKEAKDQLCSRLQFSVLDWNKPSLDFYMAKGAEDLTAKEGWHFLRFHGMALDNLAQEAP | not soluble
15 | MSGAIYRCMAIASEPLDALIIGAGHNGLVCAAYLARAGKRVLVLEAREVVGGAAVTEEFHPGFRNSVAAYTVSLLQPRVIADLALERHGLRVVPRRINNFLPLPNGDYLLAGAGRTAQDVARFSARDAAALPAYEARLEQLADVLRALALQPPPDVTDGGWLQALPQLWRAGKLGLQLQGLPLTLRQELLDLFTISAAEYLDRWFESAPIKALFGFDGIVGNYASPHTPGTAYVLLHHVFGQSNGVKGAWGHAIGGMGAITQAMAASAREYGAQLRTGCAVERVLVEQGHAVGVVTTAGETVRARAVVANVNPKLLYQRLMRPDDVPATTRERIAHYRCGSGTFRMNVALSRLPDFAALPGNGDHLTAGIILAPSLDYMDRAWHDARAFGWSREPVVELLIPSTLDDTLAPPGQHVASLFCQHVAPQLPDGRRWDDHREEVADLMIATVERYAPGFAASVLGRQVLSPLDLERMFGLVGGDIFHGALSLNQLFSARPLLGQGAYRGAVPGLYLCGSGTHPGGGVTGAPGHNAARVILGGLEHHHHHH | not soluble
16 | MSLKTQQLLTIGQLAKFSGLHVKALRYYEKIGILNPTAIDKQNGYRYYSYAHIPYVNMIKICANYGLPLKQFTHYILDDGSIDMNAILKEAQLKIEEKERQLQSDERYLRFFSEQINFSQKLDKTTNLHIEQGNKDYFLLPFTGEMLSAKYYEAVRCALAEIEKCQMTFDDRVGCYFKYDDQQVNSFIAIKIKECQEDKTNFLSLCLNHRHIHAQHLTKDRIQPKIKELHQKESINEFLILETFESPYQLSQPHLEMQYVVDNTGEGHHHHHH | soluble
17 | MKTLMVFDPAMCCSTGVCGTDVDQALVDFSTDVQWLKQCGVQIERFNLAQQPMSFVQNEKVKAFIEASGAEGLPLLLLDGETVMAGRYPKRAELARWFGIPLDKVGLAPG | soluble
18 | AHIVYDDVRDLKAIIQALLKLVDEALFDIKPEGIQLVAIDKAHISLIKIELPKEMFKEYDVPEEFKFGFNTQYMSKLLKAAKRKEEIIIDADSPEVVKLTLSGALNRVFNVNNIEVLPPEVPEVNLEFDIKATINASGLKNAIGEIAEVADTLLISGNEEKVVVKGEGENKVEVEFSKDTGSLADIEFNKESSSAYDVEYLNDIISLTKLSDYVKVAFADQKPMQLEFNMEGGGKVTYLLAPKLS | soluble
19 | MALREFSSVKVGDQLPEKTYPLTRQDLVNYAGVSGDLNPIHWDDEIAKVVGLDTAIAHGMLTMGIGGGYVTSWVGDPGAVTEYNVRFTAVVPVPNDGKGAELVFNGRVKSVDPESKSVTIALTATTGGKKIFGRAIASAKLA | soluble
20 | MARVRFENKRVNMSKLSQFGFEPNQNGQYQFRILIMQGQFEMIIELNTDGSLNTTLTDTTTSEVYVLHLTSQAHGQFVGQVAQAYQDVLYNIEQHCYDNDVFQSTPERKLIAQVKAAYGDDLEFLWPKFPQNAVWRRSDTHKWYGALLTVTSDKLALPGATHVVTVLDLRARPEDLSMLIDGQHYLPGYHMNKKHWYSILLDDVVPLATIMDDVKVSYMLAKLEHHHHHH | not soluble
21 | MGSDKIHHHHHHMSPLKSFLGVIYMNRSERLNQELIFLSYRQEFHIKELMQEFNISKRTALRDVNSLEQLGLSIYVEPGRYGGYQIMQQQLWVPILLNSQEINALFFALKALSLLSATPFEKSYHTIYKKLMATLSLSNQRQVAKLQRVVNYYSIPNLDAPTHLSDLLTAILDENVVQLTMTTVTAGFQIFDLLYRHGIWFFSGVNLDNNAWGIYRCDTIKVFQTSEQPARYTWKQLAQRQRSYDHHHHNIRYKCALTPPGREHVQKNNYPNMHLTHQNDQDYLIGGYNQDELAYMVDYLLGLGRNVRIIYPEALKTAYLQELQQIQDFY | not soluble
